Measurements: patent US20040265961A1 (published 2004)

Assays:
[1] = tested on: T1, hKSR-2-FLAG (full-length human KSR-2 with the FLAG epitope at its carboxyl terminus)
T1 sequence: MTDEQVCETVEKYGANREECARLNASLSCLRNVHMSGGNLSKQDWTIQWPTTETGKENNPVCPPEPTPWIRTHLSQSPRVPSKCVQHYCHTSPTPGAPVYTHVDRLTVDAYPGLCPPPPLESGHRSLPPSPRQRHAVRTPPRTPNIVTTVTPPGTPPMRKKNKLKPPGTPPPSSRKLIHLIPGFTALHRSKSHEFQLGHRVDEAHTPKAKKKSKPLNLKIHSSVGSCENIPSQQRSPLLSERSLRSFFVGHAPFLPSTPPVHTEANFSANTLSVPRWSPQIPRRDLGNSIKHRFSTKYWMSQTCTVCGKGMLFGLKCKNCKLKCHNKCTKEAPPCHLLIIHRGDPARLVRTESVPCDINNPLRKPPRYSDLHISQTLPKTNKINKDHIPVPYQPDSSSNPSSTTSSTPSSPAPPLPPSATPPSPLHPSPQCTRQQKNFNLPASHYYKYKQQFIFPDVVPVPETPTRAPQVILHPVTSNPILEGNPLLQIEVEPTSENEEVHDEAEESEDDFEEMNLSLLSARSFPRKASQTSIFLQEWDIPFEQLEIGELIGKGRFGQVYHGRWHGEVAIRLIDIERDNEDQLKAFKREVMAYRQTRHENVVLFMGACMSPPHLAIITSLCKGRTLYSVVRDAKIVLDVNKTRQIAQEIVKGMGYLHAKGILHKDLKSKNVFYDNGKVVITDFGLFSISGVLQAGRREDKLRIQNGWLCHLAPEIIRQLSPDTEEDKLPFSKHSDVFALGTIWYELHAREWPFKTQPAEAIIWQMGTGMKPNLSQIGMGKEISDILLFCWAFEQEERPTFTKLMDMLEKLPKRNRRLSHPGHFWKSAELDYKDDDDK

[2] = molecular target: T2, hKSR-2-FLAG (full-length human KSR-2 with the FLAG epitope at its carboxyl terminus)
T2 chain: T1 sequence

[3] = molecular target: T3, hKSR-2-FLAG (full-length human KSR-2 with the FLAG epitope at its carboxyl terminus) (human, UniProt Q6VAB6 122-950, limits assumed); experiment: anti-FLAG immunoprecipitation from KSR-2-FLAG-transfected 293T lysate (about 1 mg protein), Western blot with commercial antibodies
T3 construct: Expressed in 293T cells from pcDNA-DEST-40; Tested in cell lysates, or eluted from anti-FLAG beads with FLAG peptide for the kinase assay
T3 sequence: T1 sequence
Protocol: To identify proteins that interact with human KSR-2, 293T cells were transfected with KSR-2-FLAG as described above. Cells transfected with FLAG vector alone served as a control. Cells were lysed as described above 48 h posttransfection. Protein concentrations were determined using the BCA protein assay. Cell lysates containing approximately 1 mg protein were subjected to anti-FLAG antibody immunoprecipitation followed by electrophoresis on a 2D gel resolved in only one dimension. The proteins were then transferred to nitrocellulose membranes and probed with various commercially available antibodies (Cell Signaling Technology, Beverly, Mass.) using the MN20SL Miniblotter (Immunetics, Cambridge, Mass.).

Raf enzyme (Upstate Biotechnology, Inc.)
Raf kinase activity (in vitro kinase assay, 33P phosphorylation of GST-MEK1-His6) [1]: Raf kinase activity was upregulated

B1: purified recombinant Cot/Tp12 (protein)
chain: MENLYASEEPAVYEPSLMTMCQDSNQNDERSKSLLLSGQEVPWLSSVRYGTVEDLLAFANHISNTAKHFYGQRPQESGILLNMVITPQNGRYQIDSDVLLIPWKLTYRNIGSDFIPRGAFGKVYLAQDIKTKKRMACKLIPVDQFKPSDVEIQACFRHENIAELYGAVLWGETVHLFMEAGEGGSVLEKLESCGPMREFEIIWVTKHVLKGLDFLHSKKVIHHDIKPSNIVFMSTKAVLVDFGLSVQMTEDVYFPKDLRGTEIYMSPEVILCRGHSTKADIYSLGATLIHMQTGTPPWVKRYPRSAYPSYLYIIHKQAPPLEDIADDCSPGMRELIEASLERNPNHRPRAADLLKHEALNPPREDQPR
Cot/Tp12 kinase activity (in vitro kinase assay, 33P phosphorylation of GST-MEK1-His6) [2]: KSR-2 reduced Cot/Tp12 kinase activity in a dose-dependent manner

B2: P.SEK1 (enzyme, UniProt P45985 2-399, looked up)
chain: AAPSPSGGGGSGGGSGSGTPGPVGSPAPGHPAVSSMQGKRKALKLNFANPPFKSTARFTLNPNPTGVQNPHIERLRTHSIESSGKLKISPEQHWDFTAEDLKDLGEIGRGAYGSVNKMVHKPSGQIMAVKRIRSTVDEKEQKQLLMDLDVVMRSSDCPYIVQFYGALFREGDCWICMELMSTSFDKFYKYVYSVLDDVIPEEILGKITLATVKALNHLKENLKIIHRDIKPSNILLDRSGNIKLCDFGISGQLVDSIAKTRDAGCRPYMAPERIDPSASRQGYDVRSDVWSLGITLYELATGRFPYPKWNSVFDQLTQVVKGDPPQLSNSEEREFSPSFINFVNLCLTKDESKRPKYKELLKHPFILMYEERAVEVACYVCKILDQMPATPSSPMYVD
modifications: phosphorylated (sites not given)
notes: Endogenous protein of 293T cells, probed with a commercial antibody; also called phosphorylated SEK1
binding result [3]: no binding
